{
  "source": "patent US20030170222A1",
  "molecular_target": "Melanocortin MC5 (human recombinant, HEK-293 cells) (human), P33032",
  "sequence (P33032 whole entry)": "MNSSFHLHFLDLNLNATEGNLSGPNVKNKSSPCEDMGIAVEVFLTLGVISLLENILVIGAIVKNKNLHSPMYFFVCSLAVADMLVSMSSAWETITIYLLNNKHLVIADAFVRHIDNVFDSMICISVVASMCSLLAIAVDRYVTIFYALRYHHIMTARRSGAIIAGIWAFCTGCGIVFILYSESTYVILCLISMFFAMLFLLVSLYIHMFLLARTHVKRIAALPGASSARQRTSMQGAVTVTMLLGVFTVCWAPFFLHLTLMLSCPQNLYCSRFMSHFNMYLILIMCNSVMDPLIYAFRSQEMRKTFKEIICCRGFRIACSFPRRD",
  "data": [
    {"binder": "SLWCVCPFRVCPPCH (modifications not checked)", "note": "[β-Ge14.1-D1]", "values": [
      {"measurement": "% Inh.", "value": 71, "unit": "%"},
      {"measurement": "IC50", "value": 294, "unit": "nM"},
      {"measurement": "Ki", "value": 276, "unit": "nM"}
    ]}
  ]
}
